T1: human ANG-2 (R&D Systems) (UniProt O15123 68-496, biotinylated in the Tie-2 competition ELISA (site not stated))
T1 chain: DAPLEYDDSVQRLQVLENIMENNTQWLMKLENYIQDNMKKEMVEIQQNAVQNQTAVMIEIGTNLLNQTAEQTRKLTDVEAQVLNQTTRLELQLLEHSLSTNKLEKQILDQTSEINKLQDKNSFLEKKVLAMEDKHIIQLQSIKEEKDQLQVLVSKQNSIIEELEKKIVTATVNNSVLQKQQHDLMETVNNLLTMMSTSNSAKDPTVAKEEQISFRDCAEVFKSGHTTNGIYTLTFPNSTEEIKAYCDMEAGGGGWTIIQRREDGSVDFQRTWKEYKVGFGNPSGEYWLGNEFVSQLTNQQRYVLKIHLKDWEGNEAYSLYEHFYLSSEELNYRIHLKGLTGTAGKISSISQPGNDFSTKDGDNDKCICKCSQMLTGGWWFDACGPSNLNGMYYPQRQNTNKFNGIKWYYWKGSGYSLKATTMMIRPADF


How the values were obtained:
[1] = molecular target: T1, human ANG-2 (R&D Systems); assay: inhibition of ANG-2 binding to Tie-2 on HEK293 cells
[2] = molecular target: A33A8 VH; assay: BLI (Octet); VH domain alone

IC50 [1] | Kd [2] | Binder
0.295 nM |  | A33A8 human anti-ANG-2 HCAb (antibody, V domains shown) VH: QVQLVESGGGLVQPGGSLRLSCAASGFTFSSYWMHWVRQAPGKGLVWVSRINSDGSSTSYADSVKGRFTISRDNAKNTLYLQMNSLRAEDTAVYYCAREGYSSGGQFDYWGQGTLVTVSS
 | < 0.001 nM | ANG-2 (ligand, biotinylated in the Tie-2 competition ELISA (site not stated)) DAPLEYDDSVQRLQVLENIMENNTQWLMKLENYIQDNMKKEMVEIQQNAVQNQTAVMIEIGTNLLNQTAEQTRKLTDVEAQVLNQTTRLELQLLEHSLSTNKLEKQILDQTSEINKLQDKNSFLEKKVLAMEDKHIIQLQSIKEEKDQLQVLVSKQNSIIEELEKKIVTATVNNSVLQKQQHDLMETVNNLLTMMSTSNSAKDPTVAKEEQISFRDCAEVFKSGHTTNGIYTLTFPNSTEEIKAYCDMEAGGGGWTIIQRREDGSVDFQRTWKEYKVGFGNPSGEYWLGNEFVSQLTNQQRYVLKIHLKDWEGNEAYSLYEHFYLSSEELNYRIHLKGLTGTAGKISSISQPGNDFSTKDGDNDKCICKCSQMLTGGWWFDACGPSNLNGMYYPQRQNTNKFNGIKWYYWKGSGYSLKATTMMIRPADF
